The target of test [1] is the two labeling variants of hHsp70 in the ATP-bound state (direct binding of JGF). As to the kind of experiment: FRET or BRET. On the technique in general: In BRET a luciferase serves as donor, and the signal depends on an acceptor being close.
Test [2] concerns the target hHsp70 NBD–SBDβ labeling variant E315C/I427C (human) (UniProt P0DMV8). As to the kind of experiment: FRET or BRET.
The target of test [3] is Cy3-labeled hHsp70 (E315C/I427C or I427C/K559C; variant not told for the printed rate). As to the kind of experiment: FRET or BRET.
The target of test [4] is the two labeling variants of hHsp70 containing the T204A mutation. The test is described as follows: FRET or BRET.
The target in test [5] is hHsp70 (human Hsp70A1), variant not told for the experiment (human) (UniProt P0DMV8). The test is described as follows: SEC. Background: SEC sorts molecules by how far they enter the pores of the column.

Consider two substances from PMC7148561.

Where “and” joins values, the source holds several entries; their conditions need not be identical. Identical values can stand only once.

As for “J+G/F-rich segment (JGF) of Hdj1, residues 1–141 (from UniProt P25685 1-141) (domain or fragment)”, the apparent rate constant of direct binding in test [1] was 0.7 s⁻¹ and 1.6 s⁻¹.

Consider “Hdj1, human type II Hsp40 homolog, full-length (from UniProt P25685 1-340) (natural protein)”, for which the kon – broadly, a measure of how fast the partners come together – in test [2] worked out at 350000 M⁻¹ s⁻¹. Besides, the apparent rate constant of the fast binding phase in test [3] is 1.2 s⁻¹. In addition, the rate constant of direct binding in test [4] is 2.5 s⁻¹ and 1.5 s⁻¹. This substance returned a stoichiometry N (hHsp70 molecules per Hdj1 dimer) in test [5] of 2.
